Reference: patent publication US20180339041A1 (Kyowa Kirin, published 2018)

Key:
[1] = target: T1, C-terminally FLAG-tagged human Gas6 recombinant protein (hGas6-F) (human, UniProt Q14393 31-678, gamma-carboxylated glutamic acid residues in the Gla domain (producer cells co-express rat VKOR and human GGCX); positions not given); assay: ELISA: hGas6-F (1 µg/mL) captured on coated anti-FLAG M2 antibody; biotinylated test antibody; streptavidin-HRP/TMB; absorbance 450-570 nm, N=2 (Example 6) [A]
T1 construct: also called human Gas6-F; human Gas6 protein
T1 sequence: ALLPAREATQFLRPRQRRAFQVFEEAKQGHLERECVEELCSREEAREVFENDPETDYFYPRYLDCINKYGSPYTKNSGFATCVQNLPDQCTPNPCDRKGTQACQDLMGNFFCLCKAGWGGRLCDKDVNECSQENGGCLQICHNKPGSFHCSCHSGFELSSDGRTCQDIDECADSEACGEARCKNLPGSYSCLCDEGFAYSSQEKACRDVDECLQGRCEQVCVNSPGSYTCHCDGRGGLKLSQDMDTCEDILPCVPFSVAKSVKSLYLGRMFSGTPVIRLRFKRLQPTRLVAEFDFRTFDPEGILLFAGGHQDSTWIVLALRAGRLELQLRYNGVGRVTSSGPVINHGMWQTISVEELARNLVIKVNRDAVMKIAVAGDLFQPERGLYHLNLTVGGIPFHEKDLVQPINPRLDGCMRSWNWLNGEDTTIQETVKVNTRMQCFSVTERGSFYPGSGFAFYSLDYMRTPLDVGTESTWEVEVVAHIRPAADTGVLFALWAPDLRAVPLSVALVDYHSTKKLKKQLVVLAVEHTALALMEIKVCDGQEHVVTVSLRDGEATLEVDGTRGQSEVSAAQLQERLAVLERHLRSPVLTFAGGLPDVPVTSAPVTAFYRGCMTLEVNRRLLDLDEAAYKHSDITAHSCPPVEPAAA
Procedure: (§1) First, 2 μg/mL anti-FLAG antibody [Monoclonal ANTI-FLAG M2 antibody produced in mouse (manufactured by Sigma-Aldrich Co. LLC) diluted with PBS (manufactured by Nacalai Tesque, Inc.)] was dispensed at 50 μL/well to a 96-well plate for ELISA (manufactured by Nalge Nunc International), and the plate was left standing overnight at 4° C. for adsorption. After removal of the immobilization solution, 1% BSA-PBS (manufactured by Nacalai Tesque, Inc.) was added thereto at 300 μL/well, and the plate was left standing at room temperature for 1 hour for blocking and washed five times with Tween 20-PBS (manufactured by Wako Pure Chemical Industries Ltd.).
(§2) Each antibody solution was dispensed thereto at 50 μL/well, and the plate was left standing at room temperature for 1 hour. This plate was washed five times with Tween 20-PBS. Then, Streptavidin HRP Conjugate (manufactured by R&D Systems, Inc.) diluted 200-fold with 1% BSA-PBS was dispensed thereto at 50 μL/well, and the plate was left standing at room temperature for 1 hour. This plate was washed five times with Tween 20-PBS, and TMB (manufactured by Sigma-Aldrich Co. LLC) was added thereto at 50 μL/well and reacted. […] The absorbance at a sample wavelength of 450 nm and a reference wavelength of 570 nm (450 nm-570 nm) was measured using a plate reader.

[2] = target: T2, C-terminally FLAG-tagged mouse Gas6 recombinant protein (mGas6-F) (mouse, UniProt Q61592 28-674, limits assumed, gamma-carboxylated glutamic acid residues in the Gla domain (producer cells co-express rat VKOR and human GGCX); positions not given); assay: ELISA: mGas6-F (1 µg/mL) captured on coated anti-FLAG M2 antibody; biotinylated test antibody; streptavidin-HRP/TMB; absorbance 450-570 nm, N=2 (Example 6) [D]
T2 construct: also called mouse Gas6-F
T2 sequence (looked up): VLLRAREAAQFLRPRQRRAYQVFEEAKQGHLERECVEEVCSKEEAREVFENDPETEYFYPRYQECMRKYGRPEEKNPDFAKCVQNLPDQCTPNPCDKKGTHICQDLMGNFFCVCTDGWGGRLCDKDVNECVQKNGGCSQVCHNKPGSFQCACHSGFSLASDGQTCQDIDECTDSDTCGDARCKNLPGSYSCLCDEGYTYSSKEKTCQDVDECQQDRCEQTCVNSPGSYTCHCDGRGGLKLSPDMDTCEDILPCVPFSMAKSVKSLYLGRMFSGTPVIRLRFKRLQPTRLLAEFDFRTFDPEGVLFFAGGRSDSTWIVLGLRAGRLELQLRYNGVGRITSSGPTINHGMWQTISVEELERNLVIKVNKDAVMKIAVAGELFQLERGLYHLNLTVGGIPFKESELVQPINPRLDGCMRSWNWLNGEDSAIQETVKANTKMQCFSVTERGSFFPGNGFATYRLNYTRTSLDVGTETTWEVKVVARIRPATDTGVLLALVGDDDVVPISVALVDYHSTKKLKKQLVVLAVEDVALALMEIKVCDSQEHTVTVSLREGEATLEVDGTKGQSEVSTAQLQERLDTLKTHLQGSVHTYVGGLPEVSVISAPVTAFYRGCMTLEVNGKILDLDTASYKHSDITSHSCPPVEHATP
Procedure: as §1, §2

[3] = target: T1, C-terminally FLAG-tagged human Gas6 …; assay: ELISA, Gas6-F captured by anti-FLAG, biotinylated antibody
Procedure: After removal of the immobilization solution, 1% BSA-PBS (manufactured by Nacalai Tesque, Inc.) was added thereto at 300 μL/well, and the plate was left standing at room temperature for 1 hour for blocking and washed five times with Tween 20-PBS (manufactured by Wako Pure Chemical Industries Ltd.).
Each antibody solution was dispensed thereto at 50 μL/well, and the plate was left standing at room temperature for 1 hour. This plate was washed five times with Tween 20-PBS. Then, Streptavidin HRP Conjugate (manufactured by R&D Systems, Inc.) diluted 200-fold with 1% BSA-PBS was dispensed thereto at 50 μL/well, and the plate was left standing at room temperature for 1 hour. This plate was washed five times with Tween 20-PBS, and TMB (manufactured by Sigma-Aldrich Co. LLC) was added thereto at 50 μL/well and reacted. At an appropriate point in time, the reaction was terminated by the addition of 1 N hydrochloric acid (manufactured by Wako Pure Chemical Industries Ltd.) at 50 μL/well. The absorbance at a sample wavelength of 450 nm and a reference wavelength of 570 nm (450 nm-570 nm) was measured using a plate reader.

[4] = target: T1, C-terminally FLAG-tagged human Gas6 …; assay: cell-based or functional assay

B1: anti-human Gas6 mouse monoclonal antibody KM5320 (KM5320-mKG1 antibody) (antibody, V domains shown)
VH: QIQLVQSGPELKKPGETVKISCKASGYTFTNYGMNWVKQAPGKGLKWMGWINTETGEPTYSDDFKGRFAFSLETSATTAYLQINNLRNEDMATYFCAREDGYYGTLDYWGQGTSVTVSS
VL: SIVMTQTPKFLLVSAGDRVTITCKASQSVSNDVAWYQQKPGQSPKVLIYYASNRYTGVPDRFTGSGYGTDFTFTISTVQAEDLAVYFCQQDYSSPWTFGGGTKLEIK
notes: Hybridoma-derived mouse IgG1, kappa; also called KM5320 antibody
- EC50 (read off the curve) [1]: ~3 ng/mL
- EC50 (read off the curve) [2]: ~3 ng/mL
- antibody concentration at which binding activity was detected [3]: 0.0003 µg/mL
- antibody:Gas6 molar concentration ratio at complete inhibition of reporter activation [4]: 2 antibody:Gas6 molar ratio

B2: anti-human Gas6 mouse monoclonal antibody KM5321 (KM5321-mKG1 antibody) (antibody, V domains shown)
VH: QIQLVQSGPELKKPGETVKISCRASGYTFTNYGMNWVKQAPGKGLKWMGWINTNTGEPTYTEEFKGRFAFSLETSATTAYLQINDLKNEDTATYFCARDEGWFVYWGQGTLITVSA
VL: ETTVTQSPASLSVATGEKVTIRCITSTDIDDDMNWYQQKPGEPPKLLISEGNTLRPGVPSRFSSSGYGTDFVFTIENTLSEDVADYYCLQTDSVPLTFGAGTKLELK
notes: Hybridoma-derived mouse IgG1, kappa; also called KM5321 antibody
- EC50 (read off the curve) [1]: ~4 ng/mL
- EC50 (read off the curve) [2]: ~4 ng/mL
- antibody concentration at which binding activity was detected [3]: 0.0003 µg/mL
- antibody:Gas6 molar concentration ratio at complete inhibition of reporter activation [4]: 2 antibody:Gas6 molar ratio
